From US20020081603

Tested on: acetylated histone H3
Conditions: ChIP with qPCR

Substance | binding signal (reference (10-fold lower than treated)) (5mC in CpG island, untreated HCT15 cells) | binding signal (fold enrichment vs untreated) (HCT15 cells treated with 2 uM 5-azacytidine)
p16 5'-UTR CpG island region, methylated (untreated HCT15) | 1 | –
p16 5'-UTR CpG island region, unmethylated (5-azacytidine-treated HCT15) | – | 10
